Positions of bridges follow the written chain, without caps; N, C: chain ends. Non-standard residues stand in square brackets, D forms with d. Residues, ends and D or L forms follow the SMILES beside them. *: point of attachment. DOTA = O=C(O)CN1CCN(CC(=O)O)CCN(CC(=O)*)CCN(CC(=O)O)CC1; dPhe(4-NHCONH2) = NC(=O)Nc1ccc(C[C@@H](N)C(=O)O)cc1; Dihydroorotyl(S) = O=C1C[C@@H](C(=O)*)NC(=O)N1; Phe(4-Cl) = N[C@@H](Cc1ccc(Cl)cc1)C(=O)O; Phe(4-NH2) = Nc1ccc(C[C@H](N)C(=O)O)cc1
Key:
[1] = system: human CD34+ HSPC subpopulations; assay: Cell proliferation (CellTrace Violet) and cell death after radioligand treatment; assay type: cell-based; conditions: 50 kBq/well, 4 days
Experimental: BMMCs were thawed in 90% IMDM with GlutaMAX, 10% FBS, and 20 µg/ml DNAse. Cells were washed and resuspended in cold FACS buffer for CD34+ isolation using the Miltenyi Biotec CD34 MicroBead Kit (#130-046-702) as per manufacturer instructions. CellTrace™ Violet (CTV, Thermo Scientific, C34557) staining was conducted based on the CD34^+ cell count (0.05 µl CTV/ml/ 1,500,000 cells) to determine the number of divisions undergone by a cell at the time of analysis. Following a 20 min incubation at 37 °C, the cells were centrifuged and resuspended in serum-free medium composed of IMDM with GlutaMAX and 20% BIT9500 (Stem Cell Technologies, 09500) supplemented with three cytokines involved in stem cell maintenance: SCF (50 ng/ml, PeproTech, 300-07), TPO (12.5 ng/ml, PeproTech, 300-18), andFlt3-L (50 ng/ml, PeproTech, 300-19). 30,000 cells were seeded in 24-well plates and analyzed by flow cytometry either immediately (day 0) or after a 4-day incubation period at 37 °C with 5% CO2 (day 4) following 30 min antibody staining and additional 15 min Annexin V (APC) binding (Biolegend, 640920). The antibodies used were as follow: CD34-APC-Cy7 (Biolegend, 343514), CD38-FITC (Biolegend, 356610), CD90-PE-Cy5 (Biolegend, 328112), CD123-PE (Biolegend, 306006), CD45RA-PE-Cy7 (Biolegend, 202316).
For radioligand treatment, cells were treated with 50 kBq/well (500 µl/well; 200 MBq/nmol) of^ 177Lu-DOTA-TOC or ^177Lu-DOTA-JR11 for the entire incubation period of 4 days. […] Untreated cells served as controls. A total of n=16 samples were analyzed.
In this experiment, flow cytometry was conducted on a Miltenyi MACSQuant analyzer equipped with three lasers - blue (488 nm, 30 mW), red (640 nm, 20mW), and violet (405 nm, 40 mW). For each sample, 50,000 events were recorded. MACSQuantify™ Software was used for data acquisition and Flowjo 9.0-10.10 (BD Biosciences, USA) was employed for flow cytometric data analysis. […] To simplify the comparison between groups, we calculated a “proliferation score” per sample. The proliferation score was defined as the weighted sum of all proliferations using the formula: "Proliferation score = 1*(% one division) + 2*(% two divisions) + 3*(% three division) + 4*(% four division) + 5*(% five divisions) + 6*(% six division) + 7* (% > six divisions). A higher weighted sum indicated more cell proliferation events.

[2] = human, in vivo; cited from earlier work
[3] = human, in vivo; cited from earlier work; remark: listed apart in the source
[4] = high-sensitivity samples (n = 8)

With `C[C@@H](O)[C@@H]1NC(=O)[C@H](CCCCN)NC(=O)[C@@H](Cc2ccc(NC(N)=O)cc2)NC(=O)[C@H](Cc2ccc(NC(=O)[C@@H]3CC(=O)NC(=O)N3)cc2)NC(=O)[C@H](NC(=O)[C@H](Cc2ccc(Cl)cc2)NC(=O)CN2CCN(CC(=O)O)CCN(CC(=O)O)CCN(CC(=O)O)CC2)CSSC[C@@H](C(=O)N[C@H](Cc2ccc(O)cc2)C(N)=O)NC1=O` [^177Lu-DOTA-JR11, metal not drawn] ({DOTA}-[Phe(4-Cl)][dC][Phe(4-NH2)](Dihydroorotyl(S))[dPhe(4-NHCONH2)]KTC[dY]-NH2; disulfide 2-7 (inferred); C-terminus assumed) the “Cell death compared to untreated cells” value ([1]; HSPC subpopulations) was “highest rates of cell death”, the “Proliferation compared to untreated cells, across all subpopulations” value ([1]; n = 16, all HSPC subpopulations) was 69-79% and the “Proliferation in HSC relative to untreated, mean ± SD” value [1, 4] was 42 ± 17%. For the same molecule, the “Proliferation in HSC relative to untreated, median” value [1, 4] was 44%, the “Patients with prolonged grade 4 hematotoxicity” value [2] was 4 of 7 and the “Incidence of t-MN” value [3] was 5%. The “Patients with t-MN” value [3] was 2/40.

Source: article PMC12160025, “Limitations of the radiotheranostic concept in neuroendocrine tumors due to lineage-dependent somatostatin receptor expression on hematopoietic stem and progenitor cells” (Theranostics, 2025)
